In patent publication US20250313621A1 (NXERA PHARMA UK, published 2025):

T1: Wildtype human PAR2 expressed on cells (human, UniProt P55085 37-397)
T1 sequence: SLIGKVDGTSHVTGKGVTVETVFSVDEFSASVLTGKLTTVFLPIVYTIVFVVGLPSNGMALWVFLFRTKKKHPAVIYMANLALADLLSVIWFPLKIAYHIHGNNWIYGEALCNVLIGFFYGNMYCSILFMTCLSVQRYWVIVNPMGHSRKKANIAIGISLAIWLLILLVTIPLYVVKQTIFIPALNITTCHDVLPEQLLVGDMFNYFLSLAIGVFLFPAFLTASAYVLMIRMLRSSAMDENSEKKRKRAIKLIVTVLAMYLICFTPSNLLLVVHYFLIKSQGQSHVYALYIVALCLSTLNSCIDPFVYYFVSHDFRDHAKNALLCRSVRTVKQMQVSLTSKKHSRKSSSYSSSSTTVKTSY

T2: Soluble PAR2 StaR (recombinant human PAR2 StaR protein in detergent, construct not stated) (human, UniProt P55085 37-377, limits assumed)
T2 construct: also called purified PAR2
T2 sequence: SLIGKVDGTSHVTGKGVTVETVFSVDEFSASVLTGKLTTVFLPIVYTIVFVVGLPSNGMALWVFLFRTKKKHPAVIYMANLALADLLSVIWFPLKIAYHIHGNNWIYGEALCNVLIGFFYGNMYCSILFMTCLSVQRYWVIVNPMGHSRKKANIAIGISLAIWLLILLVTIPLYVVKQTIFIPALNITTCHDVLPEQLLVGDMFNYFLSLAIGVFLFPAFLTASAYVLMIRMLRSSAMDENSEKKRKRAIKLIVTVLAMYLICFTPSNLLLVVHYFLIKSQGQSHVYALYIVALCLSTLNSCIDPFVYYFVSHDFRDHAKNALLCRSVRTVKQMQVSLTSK

T3: PAR2-3: P157: 1-377, glycosylated, pBacMamHisStrepII, full length (human, UniProt P55085 26-377)
T3 construct: detergent-solubilised analyte in SPR, or on infected cells in flow cytometry; also called FL-N PAR2 StaR; FL-N StaR; not shown: C-terminal StrepII and deca-histidine tags
T3 sequence: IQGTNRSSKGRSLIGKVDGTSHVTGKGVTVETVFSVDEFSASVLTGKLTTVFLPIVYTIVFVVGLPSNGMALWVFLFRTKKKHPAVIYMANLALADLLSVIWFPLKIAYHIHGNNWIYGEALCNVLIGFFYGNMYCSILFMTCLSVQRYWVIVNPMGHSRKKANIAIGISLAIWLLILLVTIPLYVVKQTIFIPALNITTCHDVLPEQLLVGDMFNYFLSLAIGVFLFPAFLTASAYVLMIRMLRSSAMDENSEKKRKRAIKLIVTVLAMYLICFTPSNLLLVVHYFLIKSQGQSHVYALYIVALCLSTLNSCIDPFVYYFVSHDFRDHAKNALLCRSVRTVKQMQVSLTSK


Columns and labels:
[1] = molecular target: T1, Wildtype human PAR2 expressed on cells; test: cell-based or functional assay
[2] = molecular target: Cynomolgus PAR2 on BacMam-infected HEK293 cells (cynomolgus); test: cell-based or functional assay
Rhesus PAR2 on cells = Rhesus PAR2 on cells (rhesus (Macaca mulatta)); test: cell-based or functional assay
[3] = molecular target: T1, Wildtype human PAR2 expressed on cells; test: cell-based or functional assay; remark: listed apart in the source
[4] = molecular target: T1, Wildtype human PAR2 expressed on cells; test: cell-based or functional assay; remark: listed apart in the source
[5] = molecular target: T2, Soluble PAR2 StaR (recombinant human …); test: SPR Biacore T200; IgG captured, PAR2 as analyte; 37 C, 30 min dissociation
Method: The assay of PAR2 interaction with anti-PAR2 antibodies was carried out using a Biacore T200 instrument (GE Healthcare). Anti-human IgG antibody (Human Antibody Capture Kit, GE Healthcare) was immobilised by amine coupling in the target and reference flow cells of sensor chip CM3 (GE Healthcare) to a surface density of 2700 to 3000 resonance units (RU). Immobilisation was carried out at 25° C. in HBS-EP+buffer (GE Healthcare). The buffer was then changed to 50 mM HEPES, pH 7.5, 150 mM NaCl, 0.02% LMNG, 0.002% CHS for the PAR2-antibody interaction assay which was carried out at either 25 or 37° C. Each cycle of the assay began with antibody capture in the target flow cell to a level of 400 to 450 RU. PAR2 was then injected over target and reference flow cells at three concentrations, 5 min each, followed by 30-min dissociation. The surface was then regenerated with a solution provided in the kit (Human Antibody Capture Kit, GE Healthcare). With every antibody tested the first cycle was a blank (three injections of the running buffer) and the second a series of 50, 100, and 200 nM PAR2 injections.

[6] = molecular target: T3, PAR2-3: P157: 1-377, glycosylated, …; test: SPR (table head: Octet); IgG captured via Fc, FL-N PAR2 StaR as analyte; koff at the lower assay limit (minimum 2.00E-05 reported)
Method: (§1) For all eleven IgG1f_AEASS, affinities to human PAR2 were determined by SPR. The IgGs were captured via their Fc-fragment and detergent (LMNG/CHS) solubilised FL-N PAR2 StaR was used as analyte in solution. 50 mM HEPES pH 7.5, 150 mM NaCl, 0.02% LMNG was used as assay buffer. To minimize artefacts introduced by non-specific interaction of FL-N PAR2 StaR with the sensors, the CM3 sensors were used as basis to immobilize a high density of anti-hu-Fc capture antibody (BR-1008-39, GE Healthcare). IgGs were captured with relatively high levels of approximately 500 RU to achieve a higher ratio of specific to non-specific binding (while still maintaining conditions suitable for kinetic characterization). Affinities ranged from 6.5 nM to 130 pM. The koff values of the best candidates were at the lower assay limit. A minimum koff of 2.00E-05 s⁻¹ was reported (corresponding to 3% dissociation in 1500 s).

[7] = molecular target: T3, PAR2-3: P157: 1-377, glycosylated, …; test: SPR (table head: Octet); IgG captured via Fc, detergent solubilised FL-N PAR2 StaR as analyte
Method: as §1

[8] = molecular target: T2, Soluble PAR2 StaR (recombinant human …); test: SPR Biacore; soluble PAR2 StaR
[9] = molecular target: T1, Wildtype human PAR2 expressed on cells; test: cell-based or functional assay; remark: listed apart in the source

Row | Binder | % Max Inhibition, AP challenge, IP-One [1] | IC50 (nM), SLIGKV agonist challenge, Cyno [2] | IC50 (nM), SLIGKV agonist challenge, Rhesus (Rhesus PAR2 on cells) | IC50 (nM), SLIGKV agonist challenge, Human [3] | % Max Inhibition, Bovine Trypsin challenge, IP-One [4] | Kd [5] | koff [5] | kon [5] | t½ [5] | koff [6] | kon [7] | Kd [8] | koff [8] | kon [8] | AP IC50, HT-29 FLIPR calcium mobilisation [9] | Trypsin IC50, HT-29 FLIPR calcium mobilisation [9]
1 | Y022870 (antibody, human IgG1, lambda, V domains shown, also called Y22870) VH: EVQLLESGGGLVQPGGSLRLSCAASGFSFSRYAITWVRQAPGKGLEWVSTISALGLETYYAESVRGRFTISRDNSKNTLYLQMNSLRAEDTAVYYCARGFHYTHSGKRYYYPFDIWGQGTLVTVSS VL: QSALTQPASVSGSPGQSITISCTGTSSDVGSYNLVSWYQQHPGKAPKLMIYEGSKRPSGVSNRFSGSKSGNTASLTISGLQAEDEADYYCSQYATFIAFAVFGGGTKLTVLG | 203% | 88 nM | 50 nM | 61 nM | 10% | 0.45 nM | 1.9e-05 s⁻¹ | 41000 M⁻¹ s⁻¹ | 10.3 h | ≤ 2e-05 s⁻¹ | 96000 M⁻¹ s⁻¹ | 0.21 nM | 7e-06 s⁻¹ | 34000 M⁻¹ s⁻¹ | 17.8 nM | 40 nM
2 | Y022883 (antibody, human IgG1, lambda, V domains shown, also called Y22883; Y02283) VH: EVQLLESGGGLVQPGGSLRLSCAASGFSFTRYAISWVRQAPGKGLEWVSVISGHGSEANYAESVKGRFTISRDNSKNTLYLQMNSLRAEDTAVYYCARGFHYTHSGKRYYYPFDIWGQGTLVTVSS VL: QSALTQPASVSGSPGQSITISCTGTSSDVGSYNLVSWYQQHPGKAPKLMIYEGSKRPSGVSNRFSGSKSGNTASLTISGLQAEDEADYYCSQYATFIAFAVFGGGTKLTVLG | 149% | 68 nM | 43 nM | 54 nM | 48% | 0.65 nM | 2.3e-05 s⁻¹ | 36000 M⁻¹ s⁻¹ | 8.3 h | 2e-05 s⁻¹ | 140000 M⁻¹ s⁻¹ | 0.4 nM | 1.2e-05 s⁻¹ | 30000 M⁻¹ s⁻¹ | 42 nM | 47 nM
3 | Y022877 (antibody, human IgG1, lambda, V domains shown, also called Y22877) VH: EVQLLESGGGLVQPGGSLRLSCAASGFTFSRYAMTWVRQAPGKGLEWVSTISGLGQEAYYAGSVKGRFTISRDNSKNTLYLQMNSLRAEDTAVYYCARGFHYTHSGKRYYYPFDIWGQGTLVTVSS VL: QSALTQPASVSGSPGQSITISCTGTSSDVGSYNLVSWYQQHPGKAPKLMIYEGSKRPSGVSNRFSGSKSGNTASLTISGLQAEDEADYYCSQYATFIAFAVFGGGTKLTVLG | 167% | 74 nM | 47 nM | 52 nM | 58% | 0.55 nM | 1.7e-05 s⁻¹ | 31000 M⁻¹ s⁻¹ | 11.5 h | 2e-05 s⁻¹ | 68000 M⁻¹ s⁻¹ | 0.3 nM | 8e-06 s⁻¹ | 27000 M⁻¹ s⁻¹ | 44.3 nM | 49 nM
